Target: Fzd4 (Homo sapiens (Human)) (UniProt Q9ULV1)
Test: cell-based or functional assay

Sequence of UniProt Q9ULV1 (Q9ULV1 37-537 limits assumed, form in doubt): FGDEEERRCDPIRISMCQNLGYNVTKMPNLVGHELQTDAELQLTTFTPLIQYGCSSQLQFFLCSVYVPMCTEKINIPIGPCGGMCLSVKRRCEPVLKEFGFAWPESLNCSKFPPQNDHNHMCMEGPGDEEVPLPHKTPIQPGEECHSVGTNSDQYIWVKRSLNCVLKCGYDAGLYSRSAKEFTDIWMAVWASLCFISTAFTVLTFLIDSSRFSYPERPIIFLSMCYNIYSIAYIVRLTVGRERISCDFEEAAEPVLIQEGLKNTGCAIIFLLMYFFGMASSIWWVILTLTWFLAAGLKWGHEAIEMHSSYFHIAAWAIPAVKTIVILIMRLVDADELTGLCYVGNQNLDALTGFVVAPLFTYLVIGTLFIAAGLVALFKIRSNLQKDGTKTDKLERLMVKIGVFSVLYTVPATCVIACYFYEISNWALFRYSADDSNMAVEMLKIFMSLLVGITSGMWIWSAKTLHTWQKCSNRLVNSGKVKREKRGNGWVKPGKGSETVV

- Topflash reporter activity (firefly divided by renilla), cells overexpressing TSPAN12 against control cells, 10 nM recombinant Norrin: 4 fold
Substance: recombinant Norrin (ligand)

Source: patent US20150093375A1
